Assay: soluble on expression in E. coli; label from the status in PepcDB or PDB records

Soluble on expression in E. coli, soluble:
MSLAEAVAQGAFGKVISVRGSGARVGLLPSSRLVPSAVRATVGRFVSIRTASSTIIAIITEVSSENLAETDEHIAVASVDLLGEILPGPLRPKFQRGVTNYPTIGDSVDLISSDDLRIVYEPTGSDQIDVGTLQQDPSVIAYVDIEEMLSKHFAVLGSTGVGKSTGVSLLLNEILKSRPALRIFLLDVHNEYGRSFGDKALVLNPRNLKLPFWLFNFEEIVDVLFAGRPGVPEELDILAEVIPVAKGLYVQYTSTDRLGLKRVDPKSIGYTADTPVPYRLVDLISLIDERMGKLENRSSRIIYHKLISRIETVRNDPRYAFMFDNANVGGDTMADVISHLFRLPANGKPMTIMQLAGFPAEVVDSVVSVLCRMAFDFGLWSDGVSPLLFVCEEAHRYAAADRAIGFGPTRKAVSRIAKEGRKYGVYLGLVTQRPAELDATILSQCNTLFAMRLANDRDQSLLRSAVSDAAANLLSFVPSLGTREVLAFGEGVALPTRLRFKEVPAHQLPRSEAAISTVPSAAAGNDMHFVSAVLERWRGATSHRDVPNDPGIAERPLARTLDAPMLQPSLGLDPDRFSLLKKPLREGHHHHHH
MSLTNHQVSYFSLQDVKLLSSPFLQAQQTDLHYILALDPDRLSAPFLREAGLTPKAPSYTNWENTGLDGHIGGHYLSALSMMYAATGDTAIYHRLNYMLNELHRAQQAVGTGFIGGTPGSLQLWKEIKAGDIRAGGFSLNGKWVPLYNIHKTYAGLRDAYLYAHSDLARQMLIDLTDWMIDITSGLSDNQMQDMLRSEHGGLNETFADVAEITGDKKYLKLARRFSHKVILDPLIKNEDRLNGMHANTQIPKVIGYKRVAEVSKNDKDWNHAAEWDHAARFFWNTVVNHRSVCIGGNSVREHFHPSDNFTSMLNDVQGPETCNTYNMLRLTKMLYQNSGDVDNSNKPDPRYVDYYERALYNHILSSQEPDKGGFVYFTPMRPGHYRVYSQPETSMWCCVGSGLENHTKYGEFIYAHQQDTLYVNLFIPSQLNWKEQGVTLTQETLFPDDEKVTLRIDKAAKKNLTLMIRIPEWAGNSKGYEITINGKKHLSDIQTGASTYLPIRRKWKKGDMITFHLPMKVSLEQIPDKKDYYAFLYGPIVLATSTGTENLDGEGHHHHHH
MVSAGGVVLKGDPPEVLVVSLRGGRVVTLPKGQVEPGERYPETAVREVREETGVEASVLAPLGRVRYYFTVHEPEGPVTVSKEVHYFLMRHLGGTPRPQLTEVEDAFFLPASEALERLSYPNEREMLKRALLRLRARAKKG
DHVLLITGGTRGIGLLCARHFAECYGVKKLVLTGREQLPPREEWARFKTSNTSLAEKIQAVRELEAKGVQVEMLSLTLSDDAQVEQTLQHIKRTLGPIGGVIHCAGLTDMDTLAFIRKTSDDIQRVLEPKVSGLTTLYRHVCNEPLQFFVLFSSVSAIIPELSAGQADYAMANSYMDYFAEAHQKHAPIISVQWPNWKETGMGEVTNQAYRDSGLLSITNSEGLRFLDQIVSKKFGPVVLPAMANQTNWEPELLMK
MITIDGNGAVASVAFRTSEVIAIYPITPSSTMAEQADAWAGNGLKNVWGDTPRVVEMQSEAGAIATVHGALQTGALSTSFTSSQGLLLMIPTLYKLAGELTPFVLHVAARTVATHALSIFGDHSDVMAVRQTGCAMLCAANVQEAQDFALISQIATLKSRVPFIHFFDGFRTSHEINKIVPLADDTILDLMPQVEIDAHRARALNPEHPVIRGTSANPDTYFQSREATNPWYNAVYDHVEQAMNDFSAATGRQYQPFEYYGHPQAERVIILMGSAIGTCEEVVDELLTRGEKVGVLKVRLYRPFSAKHLLQALPGSVRSVAVLDRTKEPGAQAEPLYLDVMTALAEAFNNGERETLPRVIGGRYGLSSKEFGPDCVLAVFAELNAAKPKARFTVGIYDDVTNLSLPLPENTLPNSAKLEALFYGLGSDGSVSATKNNIKIIGNSTPWYAQGYFVYDSKKAGGLTVSHLRVSEQPIRSAYLISQADFVGCHQLQFIDKYQMAERLKPGGIFLLNTPYSADEVWSRLPQEVQAVLNQKKARFYVINAAKIARECGLAARINTVMQMAFFHLTQILPGDSALAELQGAIAKSYSSKGQDLVERNWQALALARESVEEVPLQPVNPHSANRPPVVSDAAPDFVKTVTAAMLAGLGDALPVSALPPDGTWPMGTTRWEKRNIAEEIPIWKEELCTQCNHCVAACPHSAIRAKVVPPEAMENAPASLHSLDVKSRDMRGQKYVLQVAPEDCTGCNLCVEVCPAKDRQNPEIKAINMMSRLEHVEEEKINYDFFLNLPEIDRSKLERIDIRTSQLITPLFEYSGACSGCGETPYIKLLTQLYGDRMLIANATGCSSIYGGNLPSTPYTTDANGRGPAWANSLFEDNAEFGLGFRLTVDQHRVRVLRLLDQFADKIPAELLTALKSDATPEVRREQVAALRQQLNDVAEAHELLRDADALVEKSIWLIGGDGWAYDIGFGGLDHVLSLTENVNILVLDTQCYSNTGGQASKATPLGAVTKFGEHGKRKARKDLGVSMMMYGHVYVAQISLGAQLNQTVKAIQEAEAYPGPSLIIAYSPCEEHGYDLALSHDQMRQLTATGFWPLYRFDPRRADEGKLPLALDSRPPSEAPEETLLHEQRFRRLNSQQPEVAEQLWKDAAADLQKRYDFLAQMAGKAEKSNTD
MNVMRHSWLAVAGIAGLLAFPPVDACTLWGAAGTASMEGSLLAKNRDWKPDHAQSLRLLHPEHGYAYLGLYADNGSEPGIKAGVNQKGLAVVAAEASSLPRALRADSARHGVLTRLLRDYGSLDEVASAADKLFAQARPVFLLLADAGGLMQVEIGQHGRYRLIRQQSGTLAHTNHYADTSLLDGAQTIGPSSQARLERIRFLLDQHPAHTLSEFERLSRDRHDGPDNSLWRSGREHTLAGWRIALPAGAPPRLQLTLANPGRAERDGDYALDSAFWAQPARTLLPKLAAALEHHHHHH
LQQQEEETYADACDEFLDPIMSTLMCDPVVLPSSRVTVDRSTIARHLLSDQTDPFNRSPLTMDQIRPNTELKEKIQRWLAERKQQ
MAHHHHHHMMSVANAAYLPLIGSCLTAGEQTALQCSLPLLSQRYRGTPMQLWGKVTGIKANYWVAQAFPNGEFAPAVSFYSIDGGSTWTMLSELTEEQAALCEALRGPYQGVPSYEYMMRQDLPAETDEAAVTMPTPDDILKKAEDDIAAARAASDANSDADESEGDDEEQDDEEEEDEEDAGAVLAPRKRMAKFRILSVTEAMRLAHFVQLHDADCRLTVRGMYVLQDGAAVGARNSTFGGQPLHNAKKPSCYVKMARAGTEERNRILYGLTYNPHTDYLMPITDDAPAGVWSVKYNATANVVSVRNLFYEGSLFWYRPGTLECGQVYCGPGERNFDLCFML

Soluble on expression in E. coli, not soluble:
MASAIGKNFQSGARECSTFEKIKTELSAAGLSSGAIDGILKIAATYKPKEGEKPDLAQAMVTIGKLFAELETFIKTQPESDQTIYHAIIEKKKAELVAHGIKF
MRRKMIMKIIQITDTHLLPPGIAINGVDPENQLRAAVADIVEKHADADLLVMTGDLCNYGEPEAYELLRDILAPVSIPTRLMLGNHDRRPEFVAAFPEQPRDDNGYIQSFIDTEFGRLLFLDSHEADVIGGIYGADRLTWLENALESAGDLPITVFVHHPPMDCGIRHFEHIGMHDDGAIMRRLAAHPAGIRHIVFGHIHVPMAGTTAEGIAYSSGQACAHRFITDIDVVDPLWTGGNPCYRVISLGAFGLRAYDAEVGQPVLGQTPVCEGP
MSKEPRIKILNGQTVQVRKEDHTIMNPLRWCIGKNFTGEKVELVGYTIPHPSDDISNITIQLCDESLQTPPNLLKKLVEGLECMEAIGAKIASEIERSKGGFNK
MGSDKIHHHHHHMAFLDVKGIRKTFPGVVALDGVDLEIELGAVHVLAGENGAGKSTLIRALTGLLPLDGGSIHIDGRDALTDRSAFDLVAYVPQELSLFPHMSVAENLFMPFAKAGFGGRVLPYAEMNRQAGAILERFSIKARPEQKVKSIAVSDQQLLQIARATTNKRLKVLILDEPTSSLTTQEIDRLFRILRQFRDNGTAIVFVSHKMEEIFELGTTVTVLRNGKTVGHRPMAAVSEPELIRLMSGDEVQLDQLFQPACAPGETIVTVDGLCGQGFHDISFALRRGEILGFAGLVGAGRSEVMQSMFGFKKPTGGTVLLKGRPLKLGKPSAAVEAGMLYLSEERRLHGILPVLSLRENIGISVLDQTSRGGVISTARERGVVGEVIASYDIKASSPEKKIMFLSGGNQQKAIIGRAMARKPDVLIFDEPTRGIDIRNKVEIYKIMKRLAEDGVAIILVSSEMAELKRCASRIITMYSGKLSGEFATATTDTHTLVGAIIGSAQSGQPPAGAPSPVADLETGARCHVL
MAHHHHHHMGLVDAYDRAATTEIANESLKDVRPDIVHQCLLALFDSDLAYQHRLRVYMSLFVRQGKVIEVSPALRPPRTYARFRGLMSALLRDGRICSTDGQVLMRLMPGSVAPIIPHGAEVVGLTNSLSSPVVTATQLAQQAVAAPVDDSLQGGIKHVTAFYCISCTDDCNLDGIDYITKSVCLSAYPMTAHVQCARVCEGHTRVEPASSVSGSAAGMGVGGGQAKTDRCSAPEPPKRRGEVFPANQAEDNKL
ASLSPQPDVSGELNTEALTCIVERLESEIIDGSWIHISYEETDLEMMPFLVAQANKKYPELNLKFVMSVHELVSSIKETRMEGVESARFLVNMGSSGIHISVVDFRVMDGKTSVILFEPAACSAFGPALLALRTKAALEREQLPDCYFAMVELDIQRSSSECGIFSLALAKKLQLEFMNLVKIHEDNICERLCGEEPFLPSDKADRYLPVSFYKHTQGAQRLNEYVE
MQKEFFQELQDILYEKNITIKFHSFQNFYEDFKSHKFIFNHEHQSIFKKNTSQQITLFHPTRIRRPKFLNSTHALAKIIHSVAHIEFNAINLALDASYRFKNLPLQFYYDWLEVADEEIKHFKLLNSALEELGYKYGDFPVHDNLESALEATKDSLSFRMGIVHRGLEAKGLDANPFVVQKLQSSNHSIKNLLMEYLEIILNDEIKHVKKGDTWWKFANQNKYNFIELCKTFKQFSLAGKKLNIQARIKAGFTQEECEVIEKFYSLEHHHHHH
MDYKEIVFDVDNTLIDTEYAILHSLQDTIKQINRKIIPIKELSFALGITGEDALRYLKIEDITIALSMWDRNMEKYKNTVLVFKEIKEMLTEIIKLNIGIGIVTSKTHEEFRNDFLSFDIAPYFNTVVCSNDTLEHKPKAVPLLKYMELTKCQNNELLYIGDSIYDMQCAYRANVDFGLVKWGSGDRVSTVISFTTPLDLIRQLSVSSN
MKTGDKQFAVIGLGRFGLAVCKELQDSGSQVLAVDINEDRVKEAAGFVSQAIVANCTHEETVAELKLDDYDMVMIAIGADVNASILATLIAKEAGVKSVWVKANDRFQARVLQKIGADHIIMPERDMGIRVARKMLDKRVLEFHPLGSGLAMTEFVVGSRLMGKTLSDLALCKVEGVQVLGFKRGPEIIKAPDMSTTLEIGDLIIVVGPQDKLANKLKSLLEHHHHHH
MAHHHHHHMALRGVPIRLGVHRVGYTHPSTLPVPCAQRWDLRLARARIFQEYIEEKAPGAWQLEDERSMSPEFKTFTGYPMREMRPGYGQNLPDFIMKKRLPNNTHYELFARRDIPNEENAMYGKYLYDMTVHGTSLPSTYRMHKDINKAQRNDRKLSGNRFRVLCSSGAKKPPSGWEPIPDATEEEE
MAIPDYQAVMLPLLKYAGDGKEHHIRDAIEKLAEEFELSEEERKELLPSGQQAIFKNRIGWANTYLKKAGLLGSRKKGYFSITRRGLDVLREKPPSIDVSFLKRYKEFNEFYNKDKQVLIDKPDVPEAEGKRALDPEESLEIAYQKLHNELVSEIISTTKKCSPAFFESLVVDVLTKMGYGGSRVDAGKAIGKSHDGGIDGIIKEDRLGLDVIYIQAKRWEGTVSKPEIQKFAGALIGKKAKKGVFITTSSFSKEAIEYADFTGNIVLVDGEMLARLMIEYNVGVSRVKSYEVKKMDTDYFEDGVI

— the DeepSol protein solubility set
